The results in this text go back to a protein production outcome set (Wang et al. 2014).

This series can be described thus: label from the status in PepcDB records.
For “MNQHLLGNPKLTVTHVNEVKAGINHIVVDSVQYGNQEMIMEKDGTVEMRDGEKLYINIFRPNKDGKFPVVMSADTYGKDNKPKITNMGALWPTLGTIPTSSFTPEESPDPGFWVPNDYVVVKVALRGSDKSKGVLSPWSKREAEDYYEVIEWAANQSWSNGNIGTNGVSYLAVTQWWVASLNPPHLKAMIPWEGLNDMYREVAFHGGIPDTGFYRFWTQGIFARWTDNPNIEDLIQAQQEHPLFDDFWKQRQVPLSQIKTPLLTCASWSTQGLHNRGSFEGFKQAASEEKWLYVHGRKEWESYYARENLERQKSFFDFYLKEENNDWKDTPHVIYEVRDQFYKGEFKSASAFPLPNAEYTPLYLNAENHTLNHAKISSAHVAQYDSEDKQQDVSFKYTFDKDTELVGNMNLKLWVSTKDSDDMDLFAGIKKLDRRGNEVNFPDFNHIENGQVATGWLRVSHRELDQEKSSIAQPWHKHETELKLSQDEIVPVEIELLPSGTLFKQGETLEVVVKGSEIVIGNSTPGMKTRYEHEETVNKGMHMIYTGGKYDSQLIIPIVN”, the protein production entry is recorded as “not failed”.
The entry for “IPGPGFTAGAQGSCSLRCGAQDGLCSCHPTCSGLGTCCEDFLDYCLEILPSSGSMMGGKDFVVQHLKWTDP” is “not failed”; for “MTIYLHSIQIGVLLFFIFLFISLIPYLIVQYRRYGRINFWRFFVNFSFILYLICAYAMTIFPLPPVSEVAKMTGPKQNLVPFEFVRQFILYSPFNINEPSTWLAALKDSTFIQPFFNLLLTLPFGLYLRYLFKRSFKQTFVLSFLLTLSFELIQRSALFGLYPRPYRLFDVDDLMINTLGSLIGFGIAVTFSRFLPDLDATKAESSRVSLSRRFIAFLVDLVLIFIIGSLFLPIGYYSELIILGLVPLVLKATPGQLLLRIQIKAKNRFRIALRQFLSFGNFALIISAEYFLQRSGTIPQDQLGQNFLLILLFLGLSLLPLLDVLIAFLSKTRKLWYERVSDTEMIAKLKTNEE” it is “failed”; for “MTISSRKAALAAVLLASVAVPAAAEPVFNRIASFPVAENLPGDKDKLSQTSAEIITATDDGNTLIYSDSPLGAIGFIDITDAKAPKSGGALMMDGEPTSVTSSAGKALVAVNTSESKARPSGRLAIVDVATKKIENTCDLGGQPDSIALNKDKTLGTIAIEDERDEDVNDGNIPQMPAGDLVVFRVKNGAVDCGSIKHVTLTDLAGVVPEDPEPEFVAFNGLNEIALTLQENNEIVIIDANTAEVKTHFSAGSVDLTGIDTKRDGALKFTGESKGVLREPDAVKWLDDNRLVVANEGDYHGGSRGFTIFDKTGKLLYESGASFERAVAHIGHYPESRSESKGVEPEGLEAAKFGDDQYFFLLAERASVVGVYKDTGADPELVQLLPSGISPEGGVAIPARNLFATANELDLGKDGGVRSHVMIYERSEGEKAYPQIVSAEKDGNPIGFAALSGLAAVPGKPGMLYAVSDSVLGSQPTIYTIDATKKPAVITDRLVVKRDGAPAQKLDIEGIAAAADGSFWLASEGYSERLVPHALYNVNAKGDIRAEIALPKELTANEIRFGFEGVTIIGTGDDATLWMAVQREWGDDEKGFVKLVSYNPKKKEWGAVRYPLDKTESGWVGLSEISAHGDSVYIIERDNLVGDAAKLKKLYKVAISELKPAKLGGELPVVKKTEAHDFLGELKTATNGYVLDKLEGFTFDASGKPYAVTDNDGVSDSSGETLFFPVELSATN” it is “failed”.
Take “VLESVRKEWLEIMDRELLEKARSLINANYISTTLSTVDRNYEVNIAVISVLEMIGDDTIICARFGADKTYANLKETGKGVFMVLLTDNDKSKDGIRVYVELSADLQEGEYFDRIKKRLDNTTYKNFPLKNCLVFKIVKILPVSLLRK”: the protein production result is listed as “not failed”.
In the case of “MLTTTRRAALISGLATTGLAAFGNRAFAQETGAVGAAVDKFAQDVMAAFPDQPGLGITVVENGQITLAKGYGVKALGGQDRCDESTVFGIASNTKAMTAALLAMLVEEGRVEWDAPVTQYLPDFAMKDPIVTKLLTVRDLLVHRSGLSLGAGDLMIWPAPTHTRAEIVAGLKHLPIGGQFRGGYAYDNVLYVVAGAVIEAVTGQTWEQVIKARIFDPLGMSNTVSSPRLVDQSRRALPHARLGPPVRGLGPQKVLPFDASFDAAGPAGGVNSCPADIGKWMQVQLGRGVSADGKRLWSEAQAREMWKPQTITSSSDGPSNENPARPSMQAYALGWYVQDHRGERLLWHTGGLAGFISYTGLLPGRKSGIMIMTNAEENPVLRSLRFGGPDRLQGRSDFDWIASSKRVQAEADAQTIKDAAAATTPKGGGAPPSLPLEAYAGVYRDPWYGTVTISVTGKGKKKGLYVSFDKTPLLRGKLGPFDGETFITTFEDRTQEDAFFTFDIKDGKAVSALVKAVSPLADFSYDYHDLRLTKEG”, the protein production entry is “failed”.
Consider “MKPNEVQIQLERLFRTPIEHPDSSKTAPIAISDLFVQIDPAAGEVQLFNDKDEELHRVVIYDWIQEGRTEIPSAMRQELRAAVKRLHAARFFDKDQFVRPFSVALTQEDFTIIEELLFIDDELIQLDSALLENLDEELNNFLAELLPDIKLEHHHHHH”, for which the protein production result is on record as “not failed”.
Next, “MGAFFMSVVSAFAGAAEACRPTGALQNVEVARVVDGDTVRLRDGRSVRLIGINAPELAHNGRTTEPFAEAAKQRLQALVSASDGRLALQPGRQARDHYGRTLAHLFDASGANLEARLLGEGLGYLVAVAPNTELTACQQAAERAARSANLGVWKRSPVLSLDRLAQSGFAVVRGRVLEVERNRGGIWLEMDGPLVLRIEPKVLKAFDAKRVMQMAGRSLEVRGWVVDRSRRGAVPAGKARWQMSVTDPAMLEWLPLEHHHHHH”: “failed”; “MQLSAPPYEERLTAPRTWWLMCFLVGVSMALILLPFGTLPLLGGLVGGTAVAAVVASSYGSIRIRVVGDSLIAGEAKIPVAALGEAEIMDQEEARAWRTYKANPRAFMLLRSYIPTALRVEVTDPQDPTPYLYLSTREPERLAAALKAARTEA”: “failed”; “MSFALGQRWISDTESDLGLGTVVALDARTVTLMFAASEENRVYARSDAPVTRVIFNVGDVVDSQQGWSLQVEQVVEDQGVYTYLGTRVDTEESGVALREIFLSNQIRFNKPQDKLFAGQIDRMDNFVLRY”: “not failed”.
Regarding “MVAQLPEPIKIVRRAGDVRIHTFISAFTDDNIANATHIIEGRNKLVLVDGQFLVPYALQFRAYADSLGKEIDRIYLSHRHPDHWFGLGAAFSDIPIHALSETKEFLRQHGQDSLNDHWKLGNLAPKTLVIPEKTVRAGHEIIDGVKYVFDEVVDTEIDFLLTIGLPDVGVFIAQDLIYSGTHLYLTKYMEHWIGVLQGMLLSDYELFLPGHGFPADKNEVAKNIEYLSVAIEAAGHGLTNDAFKRFLLERFPERKCPGIFDIYIPRLFDNASEF”, the protein production result is on record as “failed”.
For “SLDTEKDCIKAVAAKDGITVIKVKSSNKLLSWHFMRKLFEIFEFYQEPVDMVATSEVGVSLTIDNDKNLPDIVRALSDIGDVTVDKDMVIICIVGDMEWDNVGFEARIINALKGVPVRMISYGGSNYNVSVLVKAEDKKKALIALSNKLFNSRATKA”, the protein production entry was “not failed”.
Consider “MAVGLPLLLSSMAMPAQAAPAPEAPGNVAGVAKKNLDPGSYKDGRYMVVLAEKPAATYDGGTAGLAPTKPEEGKKLDVDSAEVKQYQQHLQQKQQEVAQQENVTIKRDFTTAVNGFSATLTADQAINLAKDPKVLMVAPDTQYAPDYSTTDFLKLSGPNGTWATQYGGQDNAGKGTVVGVIDTGYTPSNPFFAGEPVGPLVGNPQVGVPYRTADGKIAMLKADGDTFVGECQPGTDTGADYDGSACNSKVLSTHYFADAFLETVPPENRAPEEVISPVDVDSHGTHTASTAAGNANVDAVVDGRSFGTTSGIAPAAKLSVYKVCWEDTDPATGGCYGSASVDAIEQAILDGVDVLNYSISGSTTSTTDPVSLAFLSAASAGIFVATSAGNSGPTASTVNHGAPWLTTVAATSFSQELQGTVEFSDGSKFRGASIMNREVTGAGVVLSTNAASGEGNAALCAPGSLDPAKVAGKVVVCDRGVVDRTAKSAEVLRGGGVGMILVNLTDSSLDTDKHIIPTVHVNPPATQTIKDKVTANPAITVSLLNRDTTGLPAEAQPQIAGFSSRGPLLATDSDLLKPDVSAPGVAILAGVSPIGTGGDNFGFLSGTSMASPHVAGFGALILAKNPQWSPATVKSAMMTTAGPVKLANGAVNKDVFATGAGQVDPAKVLSPGLVYDATTEDYLKFIQGTGMDLGMEGLGTTQARDMNVPSFALGNLAGKIEVTRTLTALTPGTYRASVNVPGVNVKVTPSVLTFGAPGEKKTFKVQFENNNAALGKFAMGSLNWQGANKTVTSPIAVRPQSVIADKALAFTGTGPNGSGTINITSGTNLPVGVTIDGLSKADSSAVELVPGPFAGETNASNYVKKVTVGEGSALAKFSVISSNEAADFDMLVVTPSGQQLPAATASASETLSVPNPAAGDYYVYANLYASPNNQATKATVDAAVLGANQGNASVTPNPIRLANGKTGQISLNWKNLEPGSYIGRLTFAGTSEPSFVTVLVNPGGAVVVPDEEDPKKDKKDKKHRGKIRADEPTQSNNAG”, for which the protein production entry is “failed”.
For “MQHHKVAIIGAGAAGIGMAITLKDFGITDVIILEKGTVGHSFKHWPKSTRTITPSFTSNGFGMPDMNAISMDTSPAFTFNEEHISGETYAEYLQVVANHYELNIFENTVVTNISADDAYYTIATTTETYHADYIFVATGDYNFPKKPFKYGIHYSEIEDFDNFNKGQYVVIGGNESGFDAAYQLAKNGSDIALYTSTTGLNDPDADPSVRLSPYTRQRLGNVIKQGARIEMNVHYTVKDIDFNNGQYHISFDSGQSVHTPHEPILATGFDATKNPIVQQLFVTTNQDIKLTTHDESTRYPNIFMIGATVENDNAKLCYIYKFRARFAVLAHLLTQREGLPAKQEVIENYQKNQMYLDDYSCCEVSCTC”, the protein production result is reported as “not failed”.
For “MSELPPREQPPRDQAISVAAISPERPDNHENDWTRRLVLFLRVMAVLSVAKGLYHWAQITGFVGGEDDAFEVQTMAWQTATIYFAVIELVAAVGLWLATPWGAVVWLTTVVSMAVIELMFPAIYGGSLLVVLGEALLLAAYLALAWMAARERPP”, the protein production result is listed as “failed”.
For “MITDIPWNRGEWTNQPAAVVEQAGDLLVTAAESSDAWRVTSYGFIHDTEHALLAPLPQDSAMEVEFTAAFSQQFDQAGIFVRISAEHWIKAGVEFADGAAQVGAVVTNRFSDWSLAPVPDWNGERVRMRVSRSGDALTIRAASGSNELRLVRVVPLAPDLVTVAGPFTCAPTRAGLTVPFHSWRAKPADSQLH”, the protein production entry is recorded as “failed”.
As to “MSQFFYIHPDNPQQRLINQAVEIVRKGGVIVYPTDSGYALGCKIEDKNAMERICRIRQLPDGHNFTLMCRDLSELSTYSFVDNVAFRLMKNNTPGNYTFILKGTKEVPRRLLQEKRKTIGMRVPSNPIAQALLEALGEPMLSTSLMLPGSEFTESDPEEIKDRLEKQVDLIIHGGYLGQKPTTVIDLTDDTPVVVREGVGDVKPFL”, the protein production result is reported as “not failed”.
As to “MSLTLYQKKSKMIGIIIPDLNNRFYAQIIDGIQEVIQKEGYTALISFSTNSDVKKYQNAIINFENNNVDGIITSAFTIPPNFHLNTPLVMYDSANINDDIVRIVSNNTKGGKESIKLLSKKIEKVLIQHWPLSLPTIRERIEAMTAEASKLKIDYLLEETPENNPYISAQSALNKSNQFDAIITVNDLYAAEIIKEAKRRNLKIPDDFQLVGYDNNILCGYTSPTISTIDQNPKLIGQTAAHRLLDLMSGNNSTRNSIIDVLPIKRDSTEGHHHHHH”, the protein production entry is on record as “not failed”.
As to “VMPLILLPAVDVVEGRAVRLVQGKAGSQTEYGSAVDAALGWQRDGAEWIHLVDLDAAFGRGSNHELLAEVVGKLDVQVELSGGIRDDESLAAALATGCARVNVGTAALENPQWCARVIGEHGDQVAVGLDVQIIDGEHRLRGRGWETDGGDLWDVLERLDSEGCSRFVVTDITKDGTLGGPNLDLLAGVADRTDAPVIASGGVSSLDDLRAIATLTHRGVEGAIVGKALYARRFTLPQALAAVRD”, the protein production entry was “not failed”.
